Numbering of substitutions follows the chain as printed. Names and notes keep the numbering of the source.
B1: GpH7-B3 variant V266G/GpL16-k0 (antibody, human IgG1)
heavy: not shown
light: DIVMTQSPLSLPVTPGEPASISCQASESLVHSNRNTYLHWYLQKPGQSPQLLIYKVSNRFSGVPDRFSGSGSGTDFTLKISRVEAEDVGVYYCSQNTHVPPTFGQGTKVEIE
notes: copies: 2 + 2
B2: GpH7-B3 variant V266H/GpL16-k0 (antibody, human IgG1)
heavy: not shown
light: B1 light
notes: copies: 2 + 2
B3: GpH7-B3 variant V266K/GpL16-k0 (antibody, human IgG1)
heavy: not shown
light: B1 light
notes: copies: 2 + 2
B4: GpH7-B3 variant V266N/GpL16-k0 (antibody, human IgG1)
heavy: not shown
light: B1 light
notes: copies: 2 + 2
B5: GpH7-B3 variant V266P/GpL16-k0 (antibody, human IgG1)
heavy: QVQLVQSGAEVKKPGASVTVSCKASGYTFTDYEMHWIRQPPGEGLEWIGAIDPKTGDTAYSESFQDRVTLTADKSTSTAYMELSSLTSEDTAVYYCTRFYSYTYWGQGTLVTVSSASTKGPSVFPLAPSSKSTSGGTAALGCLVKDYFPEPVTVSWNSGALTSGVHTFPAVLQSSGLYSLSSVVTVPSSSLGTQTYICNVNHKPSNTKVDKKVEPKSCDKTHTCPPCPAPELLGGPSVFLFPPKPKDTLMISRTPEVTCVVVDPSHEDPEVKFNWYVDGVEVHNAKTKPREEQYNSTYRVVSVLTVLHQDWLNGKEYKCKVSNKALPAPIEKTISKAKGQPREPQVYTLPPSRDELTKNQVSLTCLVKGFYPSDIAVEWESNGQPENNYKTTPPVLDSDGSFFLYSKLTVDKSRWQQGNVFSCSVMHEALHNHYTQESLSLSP
light: B1 light
notes: copies: 2 + 2
B6: GpH7-B3 variant V266Q/GpL16-k0 (antibody, human IgG1)
heavy: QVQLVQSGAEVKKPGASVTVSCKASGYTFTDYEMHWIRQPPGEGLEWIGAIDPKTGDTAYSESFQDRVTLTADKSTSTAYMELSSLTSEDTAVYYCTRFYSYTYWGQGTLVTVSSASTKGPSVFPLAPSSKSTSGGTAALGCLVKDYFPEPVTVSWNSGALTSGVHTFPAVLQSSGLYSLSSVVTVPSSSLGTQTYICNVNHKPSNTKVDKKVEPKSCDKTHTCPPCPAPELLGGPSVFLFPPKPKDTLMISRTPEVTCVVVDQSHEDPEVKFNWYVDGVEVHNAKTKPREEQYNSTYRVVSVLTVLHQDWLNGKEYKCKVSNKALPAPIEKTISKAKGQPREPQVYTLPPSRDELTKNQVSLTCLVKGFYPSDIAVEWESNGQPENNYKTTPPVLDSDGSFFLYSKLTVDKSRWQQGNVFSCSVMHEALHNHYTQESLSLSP
light: B1 light
notes: copies: 2 + 2
B7: GpH7-B3 variant V266R/GpL16-k0 (antibody, human IgG1)
heavy: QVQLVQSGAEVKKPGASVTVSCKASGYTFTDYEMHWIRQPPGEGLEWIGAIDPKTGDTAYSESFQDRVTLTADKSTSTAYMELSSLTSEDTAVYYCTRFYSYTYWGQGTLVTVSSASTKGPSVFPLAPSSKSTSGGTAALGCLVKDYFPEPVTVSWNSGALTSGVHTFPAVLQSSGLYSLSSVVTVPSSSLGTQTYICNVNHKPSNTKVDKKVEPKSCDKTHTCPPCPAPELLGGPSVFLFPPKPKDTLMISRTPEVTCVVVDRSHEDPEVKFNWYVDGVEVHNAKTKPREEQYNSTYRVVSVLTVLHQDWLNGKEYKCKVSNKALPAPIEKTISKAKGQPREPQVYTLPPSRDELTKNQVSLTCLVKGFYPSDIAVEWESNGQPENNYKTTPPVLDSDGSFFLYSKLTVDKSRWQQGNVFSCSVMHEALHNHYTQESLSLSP
light: B1 light
notes: copies: 2 + 2
B8: GpH7-B3 variant V266T/GpL16-k0 (antibody, human IgG1)
heavy: not shown
light: B1 light
notes: copies: 2 + 2
B9: GpH7-B3 variant V266W/GpL16-k0 (antibody, human IgG1)
heavy: not shown
light: B1 light
notes: copies: 2 + 2
B10: GpH7-B3 variant V266Y/GpL16-k0 (antibody, human IgG1)
heavy: not shown
light: B1 light
notes: copies: 2 + 2
B11: GpH7-B3 variant V2668/GpL16-k0 (antibody, human IgG1)
heavy: not shown
light: B1 light
notes: copies: 2 + 2
B12: GpH7-B3 variant G237K/GpL16-k0 (antibody, human IgG1)
heavy: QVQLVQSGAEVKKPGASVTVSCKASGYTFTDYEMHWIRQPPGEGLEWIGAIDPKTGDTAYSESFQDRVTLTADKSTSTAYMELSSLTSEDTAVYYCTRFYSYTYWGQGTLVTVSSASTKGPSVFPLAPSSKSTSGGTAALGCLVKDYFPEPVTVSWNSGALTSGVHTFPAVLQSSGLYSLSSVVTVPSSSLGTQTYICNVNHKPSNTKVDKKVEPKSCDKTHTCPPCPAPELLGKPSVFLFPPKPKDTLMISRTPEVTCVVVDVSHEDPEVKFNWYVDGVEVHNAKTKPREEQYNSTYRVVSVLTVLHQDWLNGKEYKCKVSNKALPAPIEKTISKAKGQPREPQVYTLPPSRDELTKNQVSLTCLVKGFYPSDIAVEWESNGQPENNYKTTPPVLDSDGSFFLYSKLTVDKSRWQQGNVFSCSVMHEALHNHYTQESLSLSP
light: B1 light
notes: copies: 2 + 2
B13: GpH7-B3 P329K/GpL16-k0 (antibody, human IgG1)
heavy: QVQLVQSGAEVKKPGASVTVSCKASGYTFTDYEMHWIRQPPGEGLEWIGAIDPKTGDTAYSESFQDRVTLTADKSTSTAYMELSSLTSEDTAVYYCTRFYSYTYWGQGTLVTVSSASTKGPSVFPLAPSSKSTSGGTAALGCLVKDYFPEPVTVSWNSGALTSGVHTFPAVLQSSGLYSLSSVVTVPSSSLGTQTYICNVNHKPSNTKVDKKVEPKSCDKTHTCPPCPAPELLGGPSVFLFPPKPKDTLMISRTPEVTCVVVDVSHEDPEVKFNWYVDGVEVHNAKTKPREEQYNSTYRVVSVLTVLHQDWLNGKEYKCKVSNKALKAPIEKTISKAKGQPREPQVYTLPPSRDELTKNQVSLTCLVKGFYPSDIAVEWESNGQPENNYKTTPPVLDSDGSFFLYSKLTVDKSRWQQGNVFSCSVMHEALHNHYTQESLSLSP
light: B1 light
notes: B3 variant; copies: 2 + 2
B14: GpH7-B3 A327F/GpL16-k0 (antibody, human IgG1)
heavy: not shown
light: B1 light
notes: B3 variant; copies: 2 + 2
B15: GpH7-B3 A327H/GpL16-k0 (antibody, human IgG1)
heavy: not shown
light: B1 light
notes: B3 variant; copies: 2 + 2
B16: GpH7-B3 A327I/GpL16-k0 (antibody, human IgG1)
heavy: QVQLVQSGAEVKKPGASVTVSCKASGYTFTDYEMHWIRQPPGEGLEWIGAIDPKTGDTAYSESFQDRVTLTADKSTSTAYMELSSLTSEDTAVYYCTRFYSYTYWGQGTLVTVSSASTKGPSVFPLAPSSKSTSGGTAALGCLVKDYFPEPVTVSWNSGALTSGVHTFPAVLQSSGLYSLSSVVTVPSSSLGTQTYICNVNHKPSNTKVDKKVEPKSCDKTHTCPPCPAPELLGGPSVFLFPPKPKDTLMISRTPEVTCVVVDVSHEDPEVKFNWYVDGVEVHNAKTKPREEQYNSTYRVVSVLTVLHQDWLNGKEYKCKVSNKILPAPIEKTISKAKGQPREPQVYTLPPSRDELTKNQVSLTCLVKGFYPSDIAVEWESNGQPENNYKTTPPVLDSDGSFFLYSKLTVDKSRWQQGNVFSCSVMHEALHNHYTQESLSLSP
light: B1 light
notes: B3 variant; copies: 2 + 2
B17: GpH7-B3 A327K/GpL16-k0 (antibody, human IgG1)
heavy: not shown
light: B1 light
notes: B3 variant; copies: 2 + 2
B18: GpH7-B3 A327L/GpL16-k0 (antibody, human IgG1)
heavy: not shown
light: B1 light
notes: B3 variant; copies: 2 + 2
B19: GpH7-B3 A327M/GpL16-k0 (antibody, human IgG1)
heavy: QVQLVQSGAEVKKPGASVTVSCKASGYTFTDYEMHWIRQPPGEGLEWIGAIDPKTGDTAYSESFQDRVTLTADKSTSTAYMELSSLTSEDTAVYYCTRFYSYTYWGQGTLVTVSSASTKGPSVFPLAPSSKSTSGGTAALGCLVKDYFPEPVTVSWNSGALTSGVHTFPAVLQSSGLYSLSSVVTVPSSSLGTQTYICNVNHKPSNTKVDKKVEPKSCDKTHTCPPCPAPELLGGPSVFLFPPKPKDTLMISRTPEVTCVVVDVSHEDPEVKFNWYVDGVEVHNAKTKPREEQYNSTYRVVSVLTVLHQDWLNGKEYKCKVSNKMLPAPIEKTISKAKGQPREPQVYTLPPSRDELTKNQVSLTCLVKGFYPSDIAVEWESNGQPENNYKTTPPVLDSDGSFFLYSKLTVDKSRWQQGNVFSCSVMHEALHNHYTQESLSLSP
light: B1 light
notes: B3 variant; copies: 2 + 2
B20: GpH7-B3 A327P/GpL16-k0 (antibody, human IgG1)
heavy: not shown
light: B1 light
notes: B3 variant; copies: 2 + 2
B21: GpH7-B3 A327Q/GpL16-k0 (antibody, human IgG1)
heavy: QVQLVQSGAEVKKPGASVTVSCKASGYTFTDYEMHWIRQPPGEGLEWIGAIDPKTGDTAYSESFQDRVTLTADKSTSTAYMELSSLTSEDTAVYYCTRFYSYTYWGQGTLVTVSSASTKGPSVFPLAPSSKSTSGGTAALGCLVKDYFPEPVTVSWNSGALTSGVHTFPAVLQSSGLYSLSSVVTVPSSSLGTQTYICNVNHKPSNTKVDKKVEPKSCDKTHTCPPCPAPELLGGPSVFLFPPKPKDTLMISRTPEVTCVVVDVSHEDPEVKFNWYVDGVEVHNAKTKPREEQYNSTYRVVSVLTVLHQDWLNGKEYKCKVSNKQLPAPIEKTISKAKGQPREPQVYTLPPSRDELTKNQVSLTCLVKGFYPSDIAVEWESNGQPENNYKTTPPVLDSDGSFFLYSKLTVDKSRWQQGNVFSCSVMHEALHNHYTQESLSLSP
light: B1 light
notes: B3 variant; copies: 2 + 2
B22: GpH7-B3 A327R/GpL16-k0 (antibody, human IgG1)
heavy: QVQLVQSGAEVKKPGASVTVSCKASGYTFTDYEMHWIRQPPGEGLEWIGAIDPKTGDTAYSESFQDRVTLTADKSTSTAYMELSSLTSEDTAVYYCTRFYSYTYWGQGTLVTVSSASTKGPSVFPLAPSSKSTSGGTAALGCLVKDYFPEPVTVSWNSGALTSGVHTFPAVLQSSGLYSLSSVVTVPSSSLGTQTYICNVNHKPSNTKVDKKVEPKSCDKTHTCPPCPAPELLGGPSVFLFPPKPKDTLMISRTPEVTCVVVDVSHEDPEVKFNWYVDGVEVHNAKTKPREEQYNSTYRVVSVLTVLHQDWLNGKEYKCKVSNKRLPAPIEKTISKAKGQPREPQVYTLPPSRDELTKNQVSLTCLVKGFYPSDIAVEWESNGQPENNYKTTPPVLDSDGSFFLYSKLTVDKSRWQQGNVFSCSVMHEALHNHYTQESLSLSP
light: B1 light
notes: B3 variant; copies: 2 + 2
B23: GpH7-B3 A327S/GpL16-k0 (antibody, human IgG1)
heavy: not shown
light: B1 light
notes: B3 variant; copies: 2 + 2
B24: GpH7-B3 N325I/GpL16-k0 (antibody, human IgG1)
heavy: not shown
light: B1 light
notes: B3 variant; copies: 2 + 2
B25: GpH7-B3 S298W/GpL16-k0 (antibody, human IgG1)
heavy: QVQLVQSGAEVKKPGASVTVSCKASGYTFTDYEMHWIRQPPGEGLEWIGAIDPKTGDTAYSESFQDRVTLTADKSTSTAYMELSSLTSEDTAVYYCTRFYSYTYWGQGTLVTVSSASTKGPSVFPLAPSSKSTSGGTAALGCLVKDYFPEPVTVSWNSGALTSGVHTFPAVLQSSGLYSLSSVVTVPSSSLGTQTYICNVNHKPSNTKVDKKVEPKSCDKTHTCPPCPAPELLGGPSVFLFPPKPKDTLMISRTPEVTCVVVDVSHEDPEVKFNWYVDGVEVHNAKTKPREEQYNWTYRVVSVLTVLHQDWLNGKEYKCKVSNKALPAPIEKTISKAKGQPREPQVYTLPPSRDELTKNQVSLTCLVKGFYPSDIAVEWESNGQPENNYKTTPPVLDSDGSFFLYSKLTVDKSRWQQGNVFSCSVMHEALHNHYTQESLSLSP
light: B1 light
notes: B3 variant; copies: 2 + 2

molecular target: T1, human FcγRIa (human, UniProt P12314 16-292, limits assumed); assay: SPR (Biacore);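 further: antibody variants captured on sensor chip, Fcγ receptor flowed over at 25 °C, bound receptor normalized to amount of captured antibody, expressed relative to reference antibody set as 100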
T1 construct: also called FcgRIa; FcγRI (CD64)
T1 sequence (P12314 16-292 limits assumed): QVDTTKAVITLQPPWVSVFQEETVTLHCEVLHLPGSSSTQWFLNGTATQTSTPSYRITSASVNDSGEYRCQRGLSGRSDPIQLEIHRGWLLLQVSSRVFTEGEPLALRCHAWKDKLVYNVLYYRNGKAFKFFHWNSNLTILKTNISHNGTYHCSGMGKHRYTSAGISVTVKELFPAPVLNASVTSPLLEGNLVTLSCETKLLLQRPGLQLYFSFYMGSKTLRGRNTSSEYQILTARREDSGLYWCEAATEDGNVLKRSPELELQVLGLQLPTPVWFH

| Binder | relative binding activity |
| --- | --- |
| B1 | 86 % of GpH7-B3/GpL16-k0 |
| B2 | 62 % of GpH7-B3/GpL16-k0 |
| B3 | 15 % of GpH7-B3/GpL16-k0 |
| B4 | 84 % of GpH7-B3/GpL16-k0 |
| B5 | 1 % of GpH7-B3/GpL16-k0 |
| B6 | 88 % of GpH7-B3/GpL16-k0 |
| B7 | 5 % of GpH7-B3/GpL16-k0 |
| B8 | 89 % of GpH7-B3/GpL16-k0 |
| B9 | 78 % of GpH7-B3/GpL16-k0 |
| B10 | 75 % of GpH7-B3/GpL16-k0 |
| B11 | 79 % of GpH7-B3/GpL16-k0 |
| B12 | 2 % of GpH7-B3/GpL16-k0 |

Molecular target: T2, human FcγRIIa(R) (human, UniProt P12318 36-217)
T2 construct: also called FcgRIIaR; FcγRIIa type R
T2 chain: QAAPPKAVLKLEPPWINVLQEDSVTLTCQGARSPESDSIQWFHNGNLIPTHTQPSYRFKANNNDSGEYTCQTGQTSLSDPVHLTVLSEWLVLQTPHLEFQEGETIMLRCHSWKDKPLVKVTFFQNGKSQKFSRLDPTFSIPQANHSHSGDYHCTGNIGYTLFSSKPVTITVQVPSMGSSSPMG
Assay: SPR (Biacore);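 further: antibody variants captured on sensor chip, Fcγ receptor flowed over at 25 °C, bound receptor normalized to amount of captured antibody, expressed relative to reference antibody set as 100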

| Binder | relative binding activity |
| --- | --- |
| B1 | 27 % of GpH7-B3/GpL16-k0 |
| B2 | 22 % of GpH7-B3/GpL16-k0 |
| B3 | 0 % of GpH7-B3/GpL16-k0 |
| B4 | 58 % of GpH7-B3/GpL16-k0 |
| B5 | -5 % of GpH7-B3/GpL16-k0 |
| B6 | 47 % of GpH7-B3/GpL16-k0 |
| B7 | -6 % of GpH7-B3/GpL16-k0 |
| B8 | 66 % of GpH7-B3/GpL16-k0 |
| B9 | 37 % of GpH7-B3/GpL16-k0 |
| B10 | 18 % of GpH7-B3/GpL16-k0 |
| B11 | 26 % of GpH7-B3/GpL16-k0 |
| B12 | 0 % of GpH7-B3/GpL16-k0 |

molecular target: T3, human FcγRIIa(H) (human, UniProt P12318 36-217); assay: SPR (Biacore);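 further: antibody variants captured on sensor chip, Fcγ receptor flowed over at 25 °C, bound receptor normalized to amount of captured antibody, expressed relative to reference antibody set as 100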
T3 construct: also called FcgRIIaH; FcγRIIa type H
T3 sequence: T2 chain with R133H

| Binder | relative binding activity |
| --- | --- |
| B1 | 10 % of GpH7-B3/GpL16-k0 |
| B2 | 2 % of GpH7-B3/GpL16-k0 |
| B3 | -1 % of GpH7-B3/GpL16-k0 |
| B4 | 32 % of GpH7-B3/GpL16-k0 |
| B5 | -1 % of GpH7-B3/GpL16-k0 |
| B6 | 11 % of GpH7-B3/GpL16-k0 |
| B7 | -1 % of GpH7-B3/GpL16-k0 |
| B8 | 18 % of GpH7-B3/GpL16-k0 |
| B9 | 0 % of GpH7-B3/GpL16-k0 |
| B10 | 2 % of GpH7-B3/GpL16-k0 |
| B11 | 5 % of GpH7-B3/GpL16-k0 |
| B12 | 0 % of GpH7-B3/GpL16-k0 |

molecular target: T4, human FcγRIIb (human, UniProt P31994 43-217, limits assumed); assay: SPR (Biacore);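 further: antibody variants captured on sensor chip, Fcγ receptor flowed over at 25 °C, bound receptor normalized to amount of captured antibody, expressed relative to reference antibody set as 100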
T4 construct: also called FcgRIIb
T4 sequence: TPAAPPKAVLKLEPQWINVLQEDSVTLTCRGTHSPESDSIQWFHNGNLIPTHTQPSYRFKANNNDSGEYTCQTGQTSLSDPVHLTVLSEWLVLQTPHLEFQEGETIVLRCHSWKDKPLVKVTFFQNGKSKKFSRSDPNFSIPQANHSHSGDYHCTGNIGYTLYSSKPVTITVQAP

| Binder | relative binding activity |
| --- | --- |
| B1 | 22 % of GpH7-B3/GpL16-k0 |
| B2 | 14 % of GpH7-B3/GpL16-k0 |
| B3 | -1 % of GpH7-B3/GpL16-k0 |
| B4 | 40 % of GpH7-B3/GpL16-k0 |
| B5 | -3 % of GpH7-B3/GpL16-k0 |
| B6 | 34 % of GpH7-B3/GpL16-k0 |
| B7 | -2 % of GpH7-B3/GpL16-k0 |
| B8 | 52 % of GpH7-B3/GpL16-k0 |
| B9 | 26 % of GpH7-B3/GpL16-k0 |
| B10 | 15 % of GpH7-B3/GpL16-k0 |
| B11 | 18 % of GpH7-B3/GpL16-k0 |
| B12 | -1 % of GpH7-B3/GpL16-k0 |

molecular target: T5, human FcγRIIIa(F) (human, UniProt P08637 17-208, limits assumed); assay: SPR (Biacore)
T5 construct: also called FcgRIIIaF; allotype F158
T5 sequence (P08637 other isoform, or with tags, fused parts or gaps limits assumed): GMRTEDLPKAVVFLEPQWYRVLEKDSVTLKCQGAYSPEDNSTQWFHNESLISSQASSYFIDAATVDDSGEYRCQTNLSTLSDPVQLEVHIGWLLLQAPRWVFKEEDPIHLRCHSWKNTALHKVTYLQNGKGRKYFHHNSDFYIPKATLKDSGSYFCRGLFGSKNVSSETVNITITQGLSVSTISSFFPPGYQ

| Binder | relative binding activity |
| --- | --- |
| B1 | 3 % of GpH7-B3/GpL16-k0 |
| B2 | 0 % of GpH7-B3/GpL16-k0 |
| B3 | -1 % of GpH7-B3/GpL16-k0 |
| B4 | 5 % of GpH7-B3/GpL16-k0 |
| B5 | -1 % of GpH7-B3/GpL16-k0 |
| B6 | 3 % of GpH7-B3/GpL16-k0 |
| B7 | -1 % of GpH7-B3/GpL16-k0 |
| B8 | 12 % of GpH7-B3/GpL16-k0 |
| B9 | -1 % of GpH7-B3/GpL16-k0 |
| B10 | 0 % of GpH7-B3/GpL16-k0 |
| B11 | 3 % of GpH7-B3/GpL16-k0 |
| B12 | -1 % of GpH7-B3/GpL16-k0 |

molecular target: T6, human FcγRIa (human, UniProt P12314 16-292, limits assumed); assay: SPR, captured antibody;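 further: antibody captured on a sensor chip, Fcγ receptor flowed over at 25 °C, receptor binding normalized to the captured antibody amount and expressed relative to the reference antibody ×100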
T6 construct: also called FcgRIa; hFcgRIa
T6 sequence (P12314 16-292 limits assumed): as the sequence (P12314 16-292 limits assumed) above

| Binder | relative binding activity |
| --- | --- |
| B13 | 6 % of GpH7-B3/GpL16-k0 |
| B14 | 95 % of GpH7-B3/GpL16-k0 |
| B15 | 93 % of GpH7-B3/GpL16-k0 |
| B16 | 98 % of GpH7-B3/GpL16-k0 |
| B17 | 57 % of GpH7-B3/GpL16-k0 |
| B18 | 98 % of GpH7-B3/GpL16-k0 |
| B19 | 95 % of GpH7-B3/GpL16-k0 |
| B20 | 95 % of GpH7-B3/GpL16-k0 |
| B21 | 94 % of GpH7-B3/GpL16-k0 |
| B22 | 51 % of GpH7-B3/GpL16-k0 |
| B23 | 88 % of GpH7-B3/GpL16-k0 |
| B24 | 94 % of GpH7-B3/GpL16-k0 |
| B25 | 69 % of GpH7-B3/GpL16-k0 |

Molecular target: T7, human FcγRIIa(R) (human, UniProt P12318 36-217)
T7 construct: also called FcgRIIaR; hFcgRIIa(R)
T7 chain: T2 chain
Assay: SPR, captured antibody;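 further: antibody captured on a sensor chip, Fcγ receptor flowed over at 25 °C, receptor binding normalized to the captured antibody amount and expressed relative to the reference antibody ×100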

| Binder | relative binding activity |
| --- | --- |
| B13 | -2 % of GpH7-B3/GpL16-k0 |
| B14 | 17 % of GpH7-B3/GpL16-k0 |
| B15 | 32 % of GpH7-B3/GpL16-k0 |
| B16 | 37 % of GpH7-B3/GpL16-k0 |
| B17 | -8 % of GpH7-B3/GpL16-k0 |
| B18 | 31 % of GpH7-B3/GpL16-k0 |
| B19 | 38 % of GpH7-B3/GpL16-k0 |
| B20 | 14 % of GpH7-B3/GpL16-k0 |
| B21 | 34 % of GpH7-B3/GpL16-k0 |
| B22 | -11 % of GpH7-B3/GpL16-k0 |
| B23 | 59 % of GpH7-B3/GpL16-k0 |
| B24 | 76 % of GpH7-B3/GpL16-k0 |
| B25 | 19 % of GpH7-B3/GpL16-k0 |

molecular target: T8, human FcγRIIa(H) (human, UniProt P12318 36-217); assay: SPR, captured antibody;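 further: antibody captured on a sensor chip, Fcγ receptor flowed over at 25 °C, receptor binding normalized to the captured antibody amount and expressed relative to the reference antibody ×100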
T8 construct: also called FcgRIIaH; hFcgRIIa(H)
T8 sequence: T2 chain with R133H

| Binder | relative binding activity |
| --- | --- |
| B13 | -1 % of GpH7-B3/GpL16-k0 |
| B14 | 37 % of GpH7-B3/GpL16-k0 |
| B15 | 23 % of GpH7-B3/GpL16-k0 |
| B16 | 12 % of GpH7-B3/GpL16-k0 |
| B17 | 0 % of GpH7-B3/GpL16-k0 |
| B18 | 16 % of GpH7-B3/GpL16-k0 |
| B19 | 55 % of GpH7-B3/GpL16-k0 |
| B20 | 16 % of GpH7-B3/GpL16-k0 |
| B21 | 47 % of GpH7-B3/GpL16-k0 |
| B22 | -2 % of GpH7-B3/GpL16-k0 |
| B23 | 51 % of GpH7-B3/GpL16-k0 |
| B24 | 8 % of GpH7-B3/GpL16-k0 |
| B25 | 17 % of GpH7-B3/GpL16-k0 |

molecular target: T9, human FcγRIIb (human, UniProt P31994 43-217, limits assumed); assay: SPR, captured antibody;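 further: antibody captured on a sensor chip, Fcγ receptor flowed over at 25 °C, receptor binding normalized to the captured antibody amount and expressed relative to the reference antibody ×100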
T9 construct: also called FcgRIIb; hFcgRIIb
T9 sequence: T4 sequence

| Binder | relative binding activity |
| --- | --- |
| B13 | -2 % of GpH7-B3/GpL16-k0 |
| B14 | 22 % of GpH7-B3/GpL16-k0 |
| B15 | 35 % of GpH7-B3/GpL16-k0 |
| B16 | 46 % of GpH7-B3/GpL16-k0 |
| B17 | 0 % of GpH7-B3/GpL16-k0 |
| B18 | 34 % of GpH7-B3/GpL16-k0 |
| B19 | 40 % of GpH7-B3/GpL16-k0 |
| B20 | 18 % of GpH7-B3/GpL16-k0 |
| B21 | 29 % of GpH7-B3/GpL16-k0 |
| B22 | -3 % of GpH7-B3/GpL16-k0 |
| B23 | 62 % of GpH7-B3/GpL16-k0 |

— US20200199241A1 (Chugai, published 2020)
